According to patent KR20190026632A (dated 2019):

T1: 34S-AIMP2 (UniProt Q13155 1-320)
T1 sequence (looked up): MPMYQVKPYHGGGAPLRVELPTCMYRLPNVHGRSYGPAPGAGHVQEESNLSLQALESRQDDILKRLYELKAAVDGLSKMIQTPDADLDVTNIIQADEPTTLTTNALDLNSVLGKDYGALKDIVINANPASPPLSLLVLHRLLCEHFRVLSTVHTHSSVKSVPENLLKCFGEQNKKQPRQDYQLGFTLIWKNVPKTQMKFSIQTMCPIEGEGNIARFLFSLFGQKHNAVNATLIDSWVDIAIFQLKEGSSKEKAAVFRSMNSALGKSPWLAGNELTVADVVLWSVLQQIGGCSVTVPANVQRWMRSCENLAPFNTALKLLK

T2: His-CRS (UniProt P49589 1-748)
T2 construct: not shown: His tag
T2 sequence (looked up): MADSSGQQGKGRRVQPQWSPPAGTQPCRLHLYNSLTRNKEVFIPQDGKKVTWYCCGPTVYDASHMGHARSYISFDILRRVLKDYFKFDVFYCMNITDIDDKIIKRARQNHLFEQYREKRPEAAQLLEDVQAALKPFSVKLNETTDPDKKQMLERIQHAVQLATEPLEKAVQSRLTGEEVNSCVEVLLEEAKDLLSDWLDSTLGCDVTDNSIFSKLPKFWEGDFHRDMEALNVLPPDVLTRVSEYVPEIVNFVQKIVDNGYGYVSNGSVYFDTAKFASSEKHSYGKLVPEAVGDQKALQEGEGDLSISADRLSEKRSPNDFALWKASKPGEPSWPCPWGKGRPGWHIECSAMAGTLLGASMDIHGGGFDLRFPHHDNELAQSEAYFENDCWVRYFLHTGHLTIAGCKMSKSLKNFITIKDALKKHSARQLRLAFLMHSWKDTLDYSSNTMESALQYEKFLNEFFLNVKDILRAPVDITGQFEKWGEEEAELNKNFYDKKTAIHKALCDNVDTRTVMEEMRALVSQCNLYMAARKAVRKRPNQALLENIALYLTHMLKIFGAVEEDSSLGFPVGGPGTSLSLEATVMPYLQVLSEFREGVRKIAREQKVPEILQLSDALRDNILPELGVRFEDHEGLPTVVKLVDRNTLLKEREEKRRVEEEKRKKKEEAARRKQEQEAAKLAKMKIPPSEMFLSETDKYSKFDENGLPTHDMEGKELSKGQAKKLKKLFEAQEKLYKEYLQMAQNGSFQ

T3: His-AIMP1 (UniProt Q12904 1-312, limits assumed)
T3 construct: not shown: His tag
T3 sequence (looked up): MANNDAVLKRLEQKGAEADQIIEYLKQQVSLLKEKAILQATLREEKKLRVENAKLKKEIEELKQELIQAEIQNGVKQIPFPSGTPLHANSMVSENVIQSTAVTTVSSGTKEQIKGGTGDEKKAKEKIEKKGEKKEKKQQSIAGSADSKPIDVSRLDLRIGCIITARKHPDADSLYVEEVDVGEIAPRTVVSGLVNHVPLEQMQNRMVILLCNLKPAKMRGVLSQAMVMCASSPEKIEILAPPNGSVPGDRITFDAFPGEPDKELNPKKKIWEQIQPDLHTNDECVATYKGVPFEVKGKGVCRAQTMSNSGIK

T4: His-GRS (UniProt P41250 55-739)
T4 construct: not shown: His tag
T4 sequence (looked up): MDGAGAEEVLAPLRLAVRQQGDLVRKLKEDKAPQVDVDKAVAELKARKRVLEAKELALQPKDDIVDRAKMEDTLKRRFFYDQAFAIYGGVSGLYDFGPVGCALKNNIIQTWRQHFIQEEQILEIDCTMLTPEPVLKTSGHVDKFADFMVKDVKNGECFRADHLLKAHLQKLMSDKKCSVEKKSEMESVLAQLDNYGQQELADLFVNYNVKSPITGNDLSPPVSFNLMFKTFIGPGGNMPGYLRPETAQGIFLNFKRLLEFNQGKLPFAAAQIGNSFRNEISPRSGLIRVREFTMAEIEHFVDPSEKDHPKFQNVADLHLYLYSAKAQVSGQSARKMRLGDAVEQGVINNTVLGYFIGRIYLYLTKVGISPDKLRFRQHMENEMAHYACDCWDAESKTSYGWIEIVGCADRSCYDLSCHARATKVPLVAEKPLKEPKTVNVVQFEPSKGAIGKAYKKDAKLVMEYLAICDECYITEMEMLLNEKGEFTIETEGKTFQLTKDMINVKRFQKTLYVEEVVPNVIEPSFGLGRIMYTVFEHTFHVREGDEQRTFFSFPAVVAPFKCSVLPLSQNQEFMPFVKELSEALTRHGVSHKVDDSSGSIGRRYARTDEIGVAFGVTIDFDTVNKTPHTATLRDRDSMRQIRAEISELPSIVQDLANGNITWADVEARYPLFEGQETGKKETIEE

T5: His-WRS (UniProt P23381 1-471, limits assumed)
T5 construct: not shown: His tag
T5 sequence (looked up): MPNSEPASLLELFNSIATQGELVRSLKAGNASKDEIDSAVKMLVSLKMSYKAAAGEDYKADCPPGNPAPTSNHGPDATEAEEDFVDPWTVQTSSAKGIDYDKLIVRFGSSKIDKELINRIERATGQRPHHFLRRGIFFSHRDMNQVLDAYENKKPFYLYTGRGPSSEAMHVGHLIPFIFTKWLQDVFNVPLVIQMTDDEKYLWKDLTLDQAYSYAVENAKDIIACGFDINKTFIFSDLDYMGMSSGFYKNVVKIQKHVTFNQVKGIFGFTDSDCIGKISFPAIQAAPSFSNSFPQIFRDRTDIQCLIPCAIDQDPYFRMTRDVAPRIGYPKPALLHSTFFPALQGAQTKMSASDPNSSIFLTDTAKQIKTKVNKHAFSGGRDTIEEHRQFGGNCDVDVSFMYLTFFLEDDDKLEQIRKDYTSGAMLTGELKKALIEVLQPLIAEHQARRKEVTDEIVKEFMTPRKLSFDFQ

T6: AIMP3 (Aminoacyl tRNA synthetase complex-interacting multifunctional protein 3) (Homo sapiens (Human), UniProt O43324 1-174, limits assumed)
T6 construct: also called AIMP3 단백질
T6 sequence: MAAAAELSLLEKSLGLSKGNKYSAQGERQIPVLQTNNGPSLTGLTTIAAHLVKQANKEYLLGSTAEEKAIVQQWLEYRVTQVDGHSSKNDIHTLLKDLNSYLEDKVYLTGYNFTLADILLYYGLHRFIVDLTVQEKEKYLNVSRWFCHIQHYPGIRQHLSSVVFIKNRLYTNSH

T7: 메티오닐 티알엔에이 합성효소 (methionyl-tRNA synthetase, MRS) (human, UniProt P56192 1-900)
T7 construct: Full-length protein; In the cross-reactivity ELISA two preparations were coated (His-MRS, MRS full) and the result is told only for 'MRS'; In the western blots and cell staining it is the endogenous MRS of H460, PANC-1 and SCK cells; In SPR it was on the chip as MRS+AIMP3 co-purified protein; also called His-MRS; MRS full
T7 sequence: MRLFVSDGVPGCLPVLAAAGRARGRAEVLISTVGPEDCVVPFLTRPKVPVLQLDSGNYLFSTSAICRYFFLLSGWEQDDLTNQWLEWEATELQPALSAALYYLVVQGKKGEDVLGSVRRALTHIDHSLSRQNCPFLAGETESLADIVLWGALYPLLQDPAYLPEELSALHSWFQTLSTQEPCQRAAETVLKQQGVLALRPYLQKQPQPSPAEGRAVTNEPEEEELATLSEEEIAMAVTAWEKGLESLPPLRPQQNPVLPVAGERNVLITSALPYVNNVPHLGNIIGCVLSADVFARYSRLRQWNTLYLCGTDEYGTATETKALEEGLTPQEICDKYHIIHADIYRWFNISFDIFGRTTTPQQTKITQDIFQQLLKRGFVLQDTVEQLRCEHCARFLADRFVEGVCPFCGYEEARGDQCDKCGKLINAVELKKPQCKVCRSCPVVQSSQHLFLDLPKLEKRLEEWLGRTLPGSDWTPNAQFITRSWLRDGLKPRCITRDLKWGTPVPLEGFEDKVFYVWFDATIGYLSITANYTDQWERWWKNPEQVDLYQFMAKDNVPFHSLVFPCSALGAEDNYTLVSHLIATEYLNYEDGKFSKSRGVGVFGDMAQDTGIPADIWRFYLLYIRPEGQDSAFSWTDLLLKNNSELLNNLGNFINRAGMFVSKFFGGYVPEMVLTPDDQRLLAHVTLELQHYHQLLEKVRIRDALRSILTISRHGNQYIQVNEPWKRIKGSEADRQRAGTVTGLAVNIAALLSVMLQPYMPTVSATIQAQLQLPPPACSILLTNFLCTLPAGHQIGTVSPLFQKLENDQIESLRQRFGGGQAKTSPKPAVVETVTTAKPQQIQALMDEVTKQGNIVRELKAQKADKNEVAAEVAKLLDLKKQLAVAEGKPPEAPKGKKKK


Columns and labels:
34S-AIMP2 = biological target: T1, 34S-AIMP2; assay: ELISA; protein coated at 1 μg/ml, OD 450 nm
His-CRS = biological target: T2, His-CRS; assay: ELISA; protein coated at 1 μg/ml, OD 450 nm
His-AIMP1 = biological target: T3, His-AIMP1; assay: ELISA; protein coated at 1 μg/ml, OD 450 nm
His-GRS = biological target: T4, His-GRS; assay: ELISA; protein coated at 1 μg/ml, OD 450 nm
His-WRS = biological target: T5, His-WRS; assay: ELISA; protein coated at 1 μg/ml, OD 450 nm
His-KRS = biological target: T8, His-KRS (UniProt Q15046 1-597); assay: ELISA; protein coated at 1 μg/ml, OD 450 nm
T8 construct: not shown: His tag
T8 sequence (Q15046 whole entry): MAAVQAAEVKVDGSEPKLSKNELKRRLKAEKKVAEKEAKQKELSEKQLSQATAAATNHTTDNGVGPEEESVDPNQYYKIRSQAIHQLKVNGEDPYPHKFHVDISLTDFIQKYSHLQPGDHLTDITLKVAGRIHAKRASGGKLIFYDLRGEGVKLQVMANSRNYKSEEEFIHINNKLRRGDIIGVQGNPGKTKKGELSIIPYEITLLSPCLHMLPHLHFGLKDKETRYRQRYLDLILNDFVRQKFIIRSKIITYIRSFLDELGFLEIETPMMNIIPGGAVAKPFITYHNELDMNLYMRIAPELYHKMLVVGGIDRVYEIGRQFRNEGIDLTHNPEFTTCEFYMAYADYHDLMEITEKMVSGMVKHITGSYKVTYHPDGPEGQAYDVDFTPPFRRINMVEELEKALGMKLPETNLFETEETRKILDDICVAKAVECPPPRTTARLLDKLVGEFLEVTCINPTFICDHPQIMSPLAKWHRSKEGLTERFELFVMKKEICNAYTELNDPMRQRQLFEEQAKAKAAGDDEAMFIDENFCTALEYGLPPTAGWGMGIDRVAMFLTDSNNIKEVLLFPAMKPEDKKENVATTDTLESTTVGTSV

[1] = biological target: T6, AIMP3 (Aminoacyl tRNA synthetase …); assay: SPR; AIMP3 on CM5 chip, antibody flowed at various concentrations
[2] = biological target: T7, 메티오닐 티알엔에이 합성효소 (methionyl-tRNA …); assay: SPR; MRS+AIMP3 co-purified protein on CM5 chip, antibody flowed at various concentrations

Row | binding result (34S-AIMP2) | binding result (His-CRS) | binding result (His-AIMP1) | binding result (His-GRS) | binding result (His-WRS) | binding result (His-KRS) | binding result [1] | Kd [2] [nM] | Binder
1 | no binding (tested: 500 ng/ml) | no binding (tested: 500 ng/ml) | no binding (tested: 500 ng/ml) | no binding (tested: 500 ng/ml) | no binding (tested: 500 ng/ml) | no binding (tested: 500 ng/ml) | no binding | 1.56 | 8A12 항체 (anti-MRS monoclonal antibody 8A12) (antibody, mouse IgG2a, kappa, V domains shown, Mouse monoclonal from hybridoma 8A12 (also named 34-8F2); also called 8A12 IgG; 8A12 antibody) VH: DVKLQESGPGLVKPSQSLSLTCTVTGYSITSEYAWTWIRQFPGNKLEWMGYINYNGNTNLNPSLKSRISIIRDTSKNQFFLQLNSVTTEDTATYYCARSLWPRGWFAYWGQGTLVTVSA VL: DIQMTQSPSSMYASLGERVTITCKASQDINSYLSWFQQKPGKSPKTLMYRANRLVDGVPSRFSGSGSGQDYSLTISSLEYEDMGIYYCLQYDEFPRTFGGGTKLEIKA
2 | no binding (tested: 500 ng/ml) | no binding (tested: 500 ng/ml) | no binding (tested: 500 ng/ml) | no binding (tested: 500 ng/ml) | no binding (tested: 500 ng/ml) | no binding (tested: 500 ng/ml) | no binding | 5.42 | 1E8 항체 (anti-MRS monoclonal antibody 1E8) (antibody, mouse IgG2a, kappa, V domains shown, Mouse monoclonal from hybridoma 1E8 (immunogen MRS-AIMP3 co-purified protein); also called 1E8 IgG; 1E8 antibody) VH: DVKLQESGPGLVNPSQSLSLTCTVTGYSITSDYAWNWIRQFPGNKLEWMGYISYSGRTSYKSSLKSRISITRDTSKNQFFLELNSVTTEDTATYYCARDYGNFVGYFDVWGAGTTVTVSS VL: DIVMTQSPSSLAVSVGEKVTMSCKSSQSLLYSSNQKNYLAWYQQKPGQSPKLLIYWASTRESGVPDRFTGSGSGTEFTLTISSVKAEDLAVYYCQQYYSYPTFGGGTKLEIKA
